In patent US20190000969A1 (AbbVie / Abbott, published 2019):
Where a chain is given by its changes, count along the chain named.

Legend:
[1] = target: T1, human UPK1B (hUPK1B) protein, full length, on the cell surface (human, UniProt O75841 1-260); test: cell-based or functional assay
T1 sequence: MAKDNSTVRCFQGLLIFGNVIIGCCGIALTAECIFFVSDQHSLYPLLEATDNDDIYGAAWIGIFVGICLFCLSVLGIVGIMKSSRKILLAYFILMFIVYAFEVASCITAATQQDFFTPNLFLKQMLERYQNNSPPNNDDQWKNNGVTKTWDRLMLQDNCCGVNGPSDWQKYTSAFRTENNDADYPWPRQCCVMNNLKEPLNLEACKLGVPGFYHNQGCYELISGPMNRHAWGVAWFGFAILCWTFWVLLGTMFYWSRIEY

[2] = target: T1, human UPK1B (hUPK1B) protein, full …; test: cell-based or functional assay; remark: listed apart in the source
[3] = target: T2, hUPK1B(108-229)-Fc, second extracellular domain of human UPK1B fused to human IgG2 Fc (human, UniProt O75841 108-229); test: SPR, Biacore T200; human UPK1B Fc-fusion captured on anti-human chip, papain-digested Fab as analyte, 1:1 Langmuir fit
T2 construct: Expressed behind an IgK signal peptide, which is not part of the secreted protein; also called hUPK1B-Fc; Fc-fusion human UPK1B protein; not shown: human IgG2 Fc protein
T2 sequence: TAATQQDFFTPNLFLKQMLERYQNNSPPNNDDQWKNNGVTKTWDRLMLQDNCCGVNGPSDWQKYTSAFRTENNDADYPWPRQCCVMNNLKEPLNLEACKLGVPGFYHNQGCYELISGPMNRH

B1: SC115.1 (antibody, IgG1, V domains shown)
VH: QVLLQQSGPQLVRPGASVKISCKASGYSFTSYWIHWVKQRPGQGLEWIGMIDPSDSETSFNQKFKDKATLTVDKSSSTAYMQLSSPTSEDSAVYYCARSYYASRFDYWGQGATLTVSS
VL: DIVMTQSPSSLAMSVGQKVTMNCKSSQSLLNSNNQKNYLAWYQQKPGQSPKLLVYFASTRESGVPDRFIGSGSGTDFTLTITSVQAEDLADYFCLQHYGTPLTFGAGTKLELK
IVK, HxUPK1B, 250pM, fz, % live [1]: 23.1 % live

B2: SC115.13 (antibody, IgG1, V domains shown)
VH: QILLVQSGPELKKPGETVKISCKASGYTFTNYGMNWVKQAPGKGLKWMGWINTKTGVPTYPDDFKGRFAFSLETSASTAYLQISNLKDEDTATYFCTRGESFFSFAFWGQGTLVAVSA
VL: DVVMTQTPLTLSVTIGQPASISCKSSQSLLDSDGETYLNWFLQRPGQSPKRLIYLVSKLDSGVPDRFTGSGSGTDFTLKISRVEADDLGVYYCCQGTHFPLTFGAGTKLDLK
IVK, HxUPK1B, 250pM, fz, % live [1]: 99.4 % live

B3: SC115.18 (antibody, V domains shown)
VH: QVQLQQPGAELVRPGSSVKLSCKASGYTFTSYWMHWVKQRPMQGLEWIGNIDPSDSEIYYNQKFKDKATLTVDKSSGTAYMQLSSLTSEDSAVYYCARRSGSRDYYGMDDWGQGTSVTVSS
VL: DIVMTQSPSSLTVTAGEKVTMRCKSSQSLLNSGNQKNYLTWYQQKPGQPPKLLISWASTRDSGVPDRFTGSGSRTDFILTISSVQAEDLAVYYCQNDYSYPLTFGAGTKLELK
IVK, HxUPK1B, 250pM, fz, % live [1]: 22.9 % live

B4: SC115.19 (antibody, IgG2a, V domains shown)
VH: QITLKESGPGILQPSQTLSLTCSFSGFSLSTSGMGVGWIRQPSGKGLEWLANIWWNDDQYYNPPLKSRLTVSKDTSKTQVFLKIAHVDTADTATYYCARIYSGNYGAMDYWGQGTSVTVSS
VL: DIVMTQAAFSNPVTLGTSASISCRSSKSLLHSNGITYLYWYLQKPGQSPQLLIYQMSSLASGVPDRFSSSGSGTDFTLRISRVEAEDVGVYYCAQSLELPYTFGGGTKLEIK
IVK, HxUPK1B, 250pM, fz, % live [1]: 20.4 % live

B5: SC115.26 (antibody, V domains shown)
VH: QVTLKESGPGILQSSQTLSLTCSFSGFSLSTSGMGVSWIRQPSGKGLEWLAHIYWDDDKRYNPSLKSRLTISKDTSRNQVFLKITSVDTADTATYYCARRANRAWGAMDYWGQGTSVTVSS
VL: DIVMSQSPSSLAVSVGEKVTMSCKSSQSLLYSSNQKNFLAWYQQKPGQSPKLLIYWASTRESGVPDRFTGSGSGTDFTLTISSVKAEDLAIYYCQQYYYYPYTFGGGTKLEIK
IVK, HxUPK1B, 250pM, fz, % live [cont.] [2]: 105 % live

B6: SC115.32 (antibody, IgG1, V domains shown)
VH: QVQLQQPGAELVRPGSSVKLSCKASGYTFNSYWMHWVKQRPIKGLEWIGNIDPSDGETYYNQAFKDKATLTVDKSSSTAYMQLSRLTSEDSAVYYCARRGTAQATTWLGYWGQGTLVTVSA
VL: B3 VL with R22S, S55Y, D61E, R74G, I78T, L102F, A106S, L112I
IVK, HxUPK1B, 250pM, fz, % live [cont.] [2]: 28.2 % live

B7: SC115.36 (antibody, IgG1, V domains shown)
VH: EVQLQQSGTVVARPGASVKMSCKASGYSFTSYWMHWIKQRPGQGLDWIGSIYPGHSDATYNQRFKGKAKLTAVTSANTAYMELSSLTNEDSAVYYCSRSDGYYRGMAMDYWGQGTSVTVSS
VL: DIVLTQSPASLAVSLGQRATISCRASESVDGYGNSFMHWYRQKPGQPPKLLIYRASNLESGIPARFSGSGSRTDFALTINPVEADDVATYYCQQSYGDPRTFGGGTNLEIK
IVK, HxUPK1B, 250pM, fz, % live [cont.] [2]: 17.2 % live

B8: SC115.4 (antibody, IgG2a, V domains shown)
VH: DVKLVESGGGLVKLGGSLKLSCAASGFTFSSYPMSWVRQTPEMRLEWVATISSGGGITYYPDSVKGRFTISRDNAKNTLSLQMNSLRSEDTAMYYCSRLYYSDYEGYMDYWGQGTSVTVSS
VL: DIVLTQSPASLAVSLGQRATISCRASKSVSTSGYSYMHWYQQKPGQPPKLLIYLASNLESGVPARFSGSGSGTDFTLNIHPVEEEDASTYYCQHSRELPLTFGAGTKLELK
IVK, HxUPK1B, 250pM, fz, % live [1]: 89 % live

B9: SC115.46 (antibody, V domains shown)
VH: QVQLQQSGPQLVRPGASVKISCKASGYSFTTSWMHWMKQRPGQGLEWIGMIDPSDSETGLNQIFRDKATLTVDKYSSTAYMQLSSPTSEDSAVYYCARRGRFSYDYGGFAYWGQGTLVTVSA
VL: B3 VL with R22S, P49T, S55Y, D61E, R74G, I78T, Y100N, L102F, A106G, L112I
IVK, HxUPK1B, 250pM, fz, % live [cont.] [2]: 19.3 % live

B10: SC115.48 (antibody, V domains shown)
VH: EVQLVETGGGLVQPKGSLKLSCAASGLSFNTYAMNWVRQAPGKGLEWVARIRSKSNNYATYYADSVKDRFTISRDDSQSMLYLQMNNLKTEDTAMYYCVTSLFDYWGQGTTLTVSS
VL: QLVVTQSSSASFSLGASAKLTCTLSSQHSTYTIEWYQQQPLKPPKYVMELKKDGSHSTGDGIPDRFSGSSSGADRYLSISNMQPEDEAIYICGVGEAIKEQFVYVFGGGTKVTVL
IVK, HxUPK1B, 250pM, fz, % live [1]: 22.2 % live

B11: SC115.51 (antibody, V domains shown)
VH: QVQLKQSGPGLVQPSQSLSITCTVSGFSLTNYGIHWVRQSPGKGLEWLGVIWRGGSTDYNAGFMSRLTITKDNSKSQVFFKMNSLQGDDTAIYYCAKNTGRGALDYWGQGTTLTVSS
VL: DIVMTQSPSSLAVTAGEKVTMRCKSSQSLLWSVNQNNYLSWYQQKQGQPPKLLISGASIRESWVPDRFTGSGSGTDFTLTISNVHAEDLAVYYCQHNHGSFLPYTFGGGTKLEIK
IVK, HxUPK1B, 250pM, fz, % live [1]: 100 % live

B12: SC115.52 (antibody, IgG1, V domains shown)
VH: B2 VH with Y32L, K54Y, V57D, P61V, D88N, S101K, F103Y, F107Y, A115T
VL: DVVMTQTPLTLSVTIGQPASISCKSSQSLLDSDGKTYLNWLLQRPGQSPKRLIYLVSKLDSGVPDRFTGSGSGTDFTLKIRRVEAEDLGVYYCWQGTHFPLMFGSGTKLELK
IVK, HxUPK1B, 250pM, fz, % live [1]: 103 % live

B13: SC115.65 (antibody, IgG2a, V domains shown)
VH: EVQLQQSGPELVKPGASVKISCKASGYSFTGYFMNWVMQSHGKSLEWIGRINPYNGDTFYNQKFKGKATLTVDKSSNTAHMELRSLASEDSGVYYCAGHNNYGVSWGQGTTLTVSS
VL: DVLMTQTPLSLPVSLGDQASISCRSSQIIVHSNGNTYLEWYLQKPGQSPKLLIYKVSNRFSGVPDRFSGSGSGTDFTLKISRVEAEDLGVYYCFQGSHLPYTFGGGTKLEIK
IVK, HxUPK1B, 250pM, fz, % live [1]: 98.3 % live

B14: SC115.7 (antibody, V domains shown)
VH: EVQLQQSGAELVRPGASVKLSCTASGFNIKDSFIHWVKKRPEEGLEWIGWIDPEDGETKYAPKFQDKATITADTSSNTAYLQLSSLTSEDTAIYYCARRERFYGIYYALDYWGQGTSVTVSS
VL: B3 VL with R22S, P46L, S55Y, D61E, R74G, I78T, Y100N, L102F, A106S, L112I
IVK, HxUPK1B, 250pM, fz, % live [1]: 48.7 % live

B15: SC115.84 (antibody, IgG2b, V domains shown)
VH: QVQLQQSGAELVKPGASVKISCETSGYTFSSYWMNWVKQRPGKGLEWIGQIDPGDGDTNYNGKFRGKATLTADKSSSTAYMQLNTLTSEDSAVYFCARSRQLRLDYWGQGTTLTVSS
VL: QIVLTQSPAIMSASPGERVTMTCSASSSVSSFYLYWYQQKSGSSPKVWIYSTSNLASGVPTRFSGSGSGTSYSLTINSMEAEDAATYYCQQWSSNPLTFGAGTKLELK
IVK, HxUPK1B, 250pM, fz, % live [cont.] [2]: 25.6 % live

B16: SC115.9 (antibody, IgG2a, V domains shown)
VH: QVQLQQPGAELVKPGASVKMSCKASGYTFTSNWMHWVKQRPGQGLEWIGVIDPSDTYISYNQKFKGKATLTVDTSSSTAYMQLSSLTSEDSAVYYCTRRDSGWYFDVWGAGTTVTVSS
VL: B3 VL with R22S, S55Y, D61E, R74G, I78T
IVK, HxUPK1B, 250pM, fz, % live [1]: 17.6 % live

B17: SC115.90 (antibody, IgG2a, V domains shown)
VH: DVKLVESGGGFVRLGGSLKLSCAASGFTFNNYAMSWVRQTPEKRLEWVAIISRGGTKNYYPDSVKGRFTISRDNAKNTLYLQMSSLRSEDTAMYYCARLYYDDYEGYMDYWGQGTSVTVSS
VL: B8 VL with S88A, K107R
IVK, HxUPK1B, 250pM, fz, % live [cont.] [2]: 104 % live

B18: SC115.94 (antibody, IgG2a, V domains shown)
VH: QVQLQLSGAELVKPGASVKISCKASGYAFSSYWMNWVKQRPGKGLEWIGQIYPGDADTHYNGKFKGKATLTADKSSSTAYMQLSSLTSEDSAVYFCARLKLGRFDYWGQGTTLTVSS
VL: B10 VL with V4L, S57N, M82I, E96Y, A97T
IVK, HxUPK1B, 250pM, fz, % live [cont.] [2]: 55.7 % live

B19: chimSC115.9 (Fab, V domains shown)
VH: B16 VH
VL: B3 VL with R22S, S55Y, D61E, R74G, I78T
notes: also called Fab fragment (papain-digested) of chimeric SC115.9; parental chimeric antibody
Kd [3]: 6.4 nM

B20: chimSC115.18 (Fab, V domains shown)
VH: B3 VH
VL: B3 VL
notes: also called Fab fragment (papain-digested) of chimeric SC115.18; parental chimeric antibody
Kd [3]: 3.6 nM
